By EC50 is commonly meant the concentration giving half of the maximal effect. A low value points to higher potency in that assay.

Changes are numbered by the printed parent chain. Names may count otherwise.

For test [1], the target named is T1, Fc gamma receptor RIIIA V176 (human, UniProt P08637 17-208).
T1 construct: soluble SPR analyte
Description: SPR, Fc captured, receptor as analyte, relative to wild type Fc. The protocol: (§1) Fc mutations to be potentially integrated into an ADAPTIR™ bispecific construct were analyzed for binding to the common Fc receptors (human and cyno) and C1Q, which is a component of the complement activation system. SPR experiments were conducted at 25° C. in HBS-EP+ buffer on a Biacore T200 system.
(§2) For these experiments, all four flow cells of a CM5 sensor chip were immobilized with goat F(ab′)2 anti-human Fc (Jackson ImmunoResearch) to a response level of ˜4000 RU. Fc variants and wild type Fc were diluted to 100 nM in HBS-EP+ and captured on the surface of the chip for 120 seconds at a flow rate of 10 μL/min. Fcγ receptors (human and cyno, all purchased from R&D Systems) and complement (C1Q, purchased from Quidel Corporation and Complement Technology, Inc) were diluted in HBS-EP+ and then flowed as analytes at 30 μL/min for 120 seconds followed by a 120 seconds dissociation. Regeneration was achieved by flowing 10 mM glycine pH 1.7 at 30 μL/min for 30 seconds followed by a 60 seconds stabilization. Flow cell 1 was always left as a blank (no captured protein) for purposes of background signal subtraction. Blank-subtracted sensorgrams for each captured Fc variant were inspected for the presence of binding to any of the Fcγ receptor proteins or complement. There are polymorphisms in the Human Fc receptors IIA and RIIIA, so both sequences were tested for binding.
In general terms: In SPR one partner is held on a chip, and binding of the other changes the refractive index at the surface.

The next test deals with T2, Fc gamma receptor RI (human, UniProt P12314 16-288).
T2 construct: also called FcγRI
The test is described as above. As for the experimental part:
as §1, §2

The target in test [2] is T3, Fc gamma receptor RIIA H131 on CHO-K1SV cells (human, UniProt P12318 34-317).
T3 construct: whole, on cells
T3 sequence (looked up): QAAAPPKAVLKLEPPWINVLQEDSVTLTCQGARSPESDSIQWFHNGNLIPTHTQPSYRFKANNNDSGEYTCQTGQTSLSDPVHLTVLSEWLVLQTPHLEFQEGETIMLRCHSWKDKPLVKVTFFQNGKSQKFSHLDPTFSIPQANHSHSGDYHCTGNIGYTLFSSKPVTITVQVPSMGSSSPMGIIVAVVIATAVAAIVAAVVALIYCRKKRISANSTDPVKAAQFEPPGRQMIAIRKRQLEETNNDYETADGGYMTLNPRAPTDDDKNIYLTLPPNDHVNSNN
Description: flow cytometry, CHO-K1SV transfectants. As for the experimental part: (§3) CHO-K1SV cells stably transfected with a series of FcγR receptors were incubated with each of the […] listed in Table 23. A typical experiment labeled approximately 100,000 cells per well, in 96-well plates, with a range of binding molecule concentrations of 1 to 1000 nM, in 100 μl of PBS buffer with 0.2% BSA and 2 mM EDTA, for 30 minutes on ice, followed by washes and incubation with PE-labeled minimum cross species reactive secondary antibody, goat anti-human IgG Fcγ, F(ab′)2 ([…]) for 30 minutes to 1 hour on ice. Signal from bound molecules was detected using a LSR-II™ flow cytometer (BD Biosciences) and analyzed by FlowJo flow cytometry analysis software. Mean fluorescence intensity (MFI) of bound molecules on cells was determined after exclusion of doublets.
Background: Flow cytometry measures light scatter and fluorescence of single cells or particles in a stream.

The target in test [3] is T4, Fc gamma receptor RIIA R131 on CHO-K1SV cells (human, UniProt P12318 34-317).
T4 construct: whole, on cells
T4 sequence (looked up): T3 sequence (looked up) with H134R
The test is described as follows: flow cytometry, CHO-K1SV transfectants. The protocol: as §3

The target of the next test is T5, Full-length Human OX40 (human, UniProt P43489 29-277).
T5 construct: also called OXF001; human OX40/CHO
T5 sequence: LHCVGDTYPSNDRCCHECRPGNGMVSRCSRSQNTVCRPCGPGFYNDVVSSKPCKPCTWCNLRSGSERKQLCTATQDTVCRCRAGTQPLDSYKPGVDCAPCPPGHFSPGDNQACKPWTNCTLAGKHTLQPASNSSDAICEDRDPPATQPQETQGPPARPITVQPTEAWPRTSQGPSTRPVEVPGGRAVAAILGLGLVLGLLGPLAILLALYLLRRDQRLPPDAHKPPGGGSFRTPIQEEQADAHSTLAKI
The test is described as follows: flow cytometry, CHO cells expressing human OX40.

T2 sequence (P12314 16-288 limits assumed): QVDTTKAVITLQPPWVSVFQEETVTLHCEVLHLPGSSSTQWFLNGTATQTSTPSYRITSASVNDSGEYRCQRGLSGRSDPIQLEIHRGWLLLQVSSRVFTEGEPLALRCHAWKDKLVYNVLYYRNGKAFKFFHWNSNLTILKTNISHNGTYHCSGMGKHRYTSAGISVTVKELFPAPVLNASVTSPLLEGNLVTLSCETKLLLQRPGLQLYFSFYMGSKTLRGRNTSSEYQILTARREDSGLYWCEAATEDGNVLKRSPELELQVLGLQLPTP
T1 sequence (P08637 17-208 F176V): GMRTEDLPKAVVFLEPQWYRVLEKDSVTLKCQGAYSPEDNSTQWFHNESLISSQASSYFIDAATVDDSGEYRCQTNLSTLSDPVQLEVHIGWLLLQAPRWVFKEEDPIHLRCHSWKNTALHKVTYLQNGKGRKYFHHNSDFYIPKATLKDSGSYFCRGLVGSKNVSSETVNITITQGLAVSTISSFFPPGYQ

B1: TSC 1005 (other)
chain: EPKSSDKTHTCPPCPAPPVAAPSVFLFPPKPKDTLMISRTPEVTCVVVDVSHEDPEVKFNWYVDGVEVHNAKTKPREEQYNSTYRVVSVLTVLHQDWLNGKEYKCAVSNKALPAPIEKTISKAKGQPREPQVYTLPPSRDELTKNQVSLTCLVKGFYPSDIAVEWESNGQPENNYKTTPPVLDSDGSFFLYSKLTVDKSRWQQGNVFSCSVMHEALHNHYTQKSLSLSPG
notes: IgG1 Fc with E233P, L234V, L235A, deletion of G236, G237A, K322A (EU); also called PVAdel TSC01005
In the case of B1, the binding result in test [1] is “binds”; in the test with Fc gamma receptor RI, “binds”; in test [2], “no binding (tested: 1 to 1000 nM)”; in test [3] it was “no binding (tested: 1 to 1000 nM)”.

B2: FXX01066 (bispecific antibody)
chain: EVQLVQSGAEVKKPGASVKVSCKASGYTFTSYWMNWVRQAPGQGLEWMGNIYPSGGSTNYAQKFQGRVTMTVDTSTSTVYMELSSLRSEDTAVYYCASFSDGYYAYAMDYWGQGTLVTVSSGGGGSGGGGSGGGGSGGGGSEIVMTQSPATLSLSPGERATLSCRASQSVSSYLNWYQQKPGQAPRLLIYYASRRHTGIPARFSGSGSGTDFTLTISSLQPEDFAVYYCQQGYNLPYTFGQGTKVEIKEPKSSDKTHTCPPCPAPPAAAPSVFLFPPKPKDTLMISRTPEVTCVVVDVSHEDPEVKFNWYVDGVEVHNAKTKPREEQYNSTYRVVSVLTVLHQDWLNGKEYKCAVSNKALPAPIEKTISKAKGQPREPQVYTLPPSRDELTKNQVSLTCLVKGFYPSDIAVEWESNGQPENNYKTTPPVLDSDGSFFLYSKLTVDKSRWQQGNVFSCSVMHEALHNHYTQKSLSLSPGGGGSPSSYVLTQPPSVSVAPGQTARITCGGNNIGSKSVNWFQQKPGQAPVLVVYDDSGRPSGIPERFSGSTSGNTATLTISRVEAGDEADYYCQVWDSSSDHVVFGGGTKLTVLGGGGSGGGGSGGGGSGGGGSQVQLVESGGGVVQPGRSLRLSCAASGFTLSYYGMHWVRQAPGKGLEWVAAISHDGSDKYYADSVKGRFTISRDNSKNTLYLQMNSLRAEDTAVYYCSNDQFDPWGQGTLVTVSSR
notes: ADAPTIR scFv-Fc-scFv, anti-4-1BB (VH-VL) N-terminal, anti-OX40 C-terminal, PAA (del) Fc; also called FX01066
With B2, it took 0.57 nM to reach a half-maximal effect with Full-length Human OX40 (EC50).

For the origin of these results see patent US20220242962A1 (APTEVO RESEARCH AND DEVELOPMENT, published 2022).
